The labels stand for the following.
B1: T. elongatus OSBS (Thermosynechococcus vestitus BP-1) (protein)
chain: MRWQWRIYEEPLQEPLTTAQGVWRSRSGIYLRLEDEQGQVGYGEIAPLPGWGSETLNADIALCQQLPGHLTPEIMATIPEALPAAQFGFATAWQSVGRLPYRVRPWPICALLGSGQAALEQWQQSWQRGQTTFKWKVGVMSPEEEQAILKALLAALPPGAKLRLDANGSWDRATANRWFAWLDRHGNGKIEYVEQPLPPDQWQALLSLAQTVTTAIALDESVVSAAEVQRWVDRGWPGFFVIKTALFGDPDSLSLLLRRGLEPQRLVFSSALEGAIARTAIFHLLETWQPCHALGFGVDRWRSAPLLTTLTAYERLWERLDQ
B2: T. elongatus OSBS (Thermosynechococcus vestitus BP-1; G295A) (protein)
chain: MRWQWRIYEEPLQEPLTTAQGVWRSRSGIYLRLEDEQGQVGYGEIAPLPGWGSETLNADIALCQQLPGHLTPEIMATIPEALPAAQFGFATAWQSVGRLPYRVRPWPICALLGSGQAALEQWQQSWQRGQTTFKWKVGVMSPEEEQAILKALLAALPPGAKLRLDANGSWDRATANRWFAWLDRHGNGKIEYVEQPLPPDQWQALLSLAQTVTTAIALDESVVSAAEVQRWVDRGWPGFFVIKTALFGDPDSLSLLLRRGLEPQRLVFSSALEGAIARTAIFHLLETWQPCHALAFGVDRWRSAPLLTTLTAYERLWERLDQ
B3: E. coli OSBS (Escherichia coli K-12; A107N) (protein)
chain: MRSAQVYRWQIPMDAGVVLRDRRLKTRDGLYVCLREGEREGWGEISPLPGFSQETWEEAQSVLLAWVNNWLAGDCELPQMPSVAFGVSCALAELTDTLPQAANYRANPLCNGDPDDLILKLADMPGEKVAKVKVGLYEAVRDGMVVNLLLEAIPDLHLRLDANRAWTPLKGQQFAKYVNPDYRDRIAFLEEPCKTRDDSRAFARETGIAIAWDESLREPDFAFVAEEGVRAVVIKPTLTGSLEKVREQVQAAHALGLTAVISSSIESSLGLTQLARIAAWLTPDTIPGLDTLDLMQAQQVRRWPGSTLPVVEVDALERLL
B4: E. coli OSBS (Escherichia coli K-12; L109T) (protein)
chain: MRSAQVYRWQIPMDAGVVLRDRRLKTRDGLYVCLREGEREGWGEISPLPGFSQETWEEAQSVLLAWVNNWLAGDCELPQMPSVAFGVSCALAELTDTLPQAANYRAAPTCNGDPDDLILKLADMPGEKVAKVKVGLYEAVRDGMVVNLLLEAIPDLHLRLDANRAWTPLKGQQFAKYVNPDYRDRIAFLEEPCKTRDDSRAFARETGIAIAWDESLREPDFAFVAEEGVRAVVIKPTLTGSLEKVREQVQAAHALGLTAVISSSIESSLGLTQLARIAAWLTPDTIPGLDTLDLMQAQQVRRWPGSTLPVVEVDALERLL
B5: E. coli OSBS (Escherichia coli K-12; R20S) (protein)
chain: MRSAQVYRWQIPMDAGVVLSDRRLKTRDGLYVCLREGEREGWGEISPLPGFSQETWEEAQSVLLAWVNNWLAGDCELPQMPSVAFGVSCALAELTDTLPQAANYRAAPLCNGDPDDLILKLADMPGEKVAKVKVGLYEAVRDGMVVNLLLEAIPDLHLRLDANRAWTPLKGQQFAKYVNPDYRDRIAFLEEPCKTRDDSRAFARETGIAIAWDESLREPDFAFVAEEGVRAVVIKPTLTGSLEKVREQVQAAHALGLTAVISSSIESSLGLTQLARIAAWLTPDTIPGLDTLDLMQAQQVRRWPGSTLPVVEVDALERLL
B6: T. fusca OSBS (Thermobifida fusca YX; N71A) (protein)
chain: MTGRAFAIPLRTRFRGITVREGMLVRGAAGWGEFSPFAEYGPRECARWWAACYEAAELGWPAPVRDTVPVAATVPAVGPEEAARIVASSGCTTAKVKVAERGQSEANDVARVEAVRDALGPRGRVRIDVNGAWDVDTAVRMIRLLDRFELEYVEQPCATVDELAEVRRRVSVPIAADESIRRAEDPLRVRDAEAADVVVLKVQPLGGVRAALRLAEECGLPVVVSSAVETSVGLAAGVALAAALPELPYACGLATLRLLHADVCDDPLLPVHGVLPVRRVDVSEQRLAEVEIDPAAWQARLAAARAAWEQVEREPGP
B7: T. fusca OSBS (Thermobifida fusca YX) (protein)
chain: MTGRAFAIPLRTRFRGITVREGMLVRGAAGWGEFSPFAEYGPRECARWWAACYEAAELGWPAPVRDTVPVNATVPAVGPEEAARIVASSGCTTAKVKVAERGQSEANDVARVEAVRDALGPRGRVRIDVNGAWDVDTAVRMIRLLDRFELEYVEQPCATVDELAEVRRRVSVPIAADESIRRAEDPLRVRDAEAADVVVLKVQPLGGVRAALRLAEECGLPVVVSSAVETSVGLAAGVALAAALPELPYACGLATLRLLHADVCDDPLLPVHGVLPVRRVDVSEQRLAEVEIDPAAWQARLAAARAAWEQVEREPGP
B8: T. fusca OSBS (Thermobifida fusca YX; G252T) (protein)
chain: MTGRAFAIPLRTRFRGITVREGMLVRGAAGWGEFSPFAEYGPRECARWWAACYEAAELGWPAPVRDTVPVNATVPAVGPEEAARIVASSGCTTAKVKVAERGQSEANDVARVEAVRDALGPRGRVRIDVNGAWDVDTAVRMIRLLDRFELEYVEQPCATVDELAEVRRRVSVPIAADESIRRAEDPLRVRDAEAADVVVLKVQPLGGVRAALRLAEECGLPVVVSSAVETSVGLAAGVALAAALPELPYACTLATLRLLHADVCDDPLLPVHGVLPVRRVDVSEQRLAEVEIDPAAWQARLAAARAAWEQVEREPGP
B9: T. fusca OSBS (Thermobifida fusca YX; R15A) (protein)
chain: MTGRAFAIPLRTRFAGITVREGMLVRGAAGWGEFSPFAEYGPRECARWWAACYEAAELGWPAPVRDTVPVNATVPAVGPEEAARIVASSGCTTAKVKVAERGQSEANDVARVEAVRDALGPRGRVRIDVNGAWDVDTAVRMIRLLDRFELEYVEQPCATVDELAEVRRRVSVPIAADESIRRAEDPLRVRDAEAADVVVLKVQPLGGVRAALRLAEECGLPVVVSSAVETSVGLAAGVALAAALPELPYACGLATLRLLHADVCDDPLLPVHGVLPVRRVDVSEQRLAEVEIDPAAWQARLAAARAAWEQVEREPGP
B10: T. fusca OSBS (Thermobifida fusca YX; R126M) (protein)
chain: MTGRAFAIPLRTRFRGITVREGMLVRGAAGWGEFSPFAEYGPRECARWWAACYEAAELGWPAPVRDTVPVNATVPAVGPEEAARIVASSGCTTAKVKVAERGQSEANDVARVEAVRDALGPRGRVMIDVNGAWDVDTAVRMIRLLDRFELEYVEQPCATVDELAEVRRRVSVPIAADESIRRAEDPLRVRDAEAADVVVLKVQPLGGVRAALRLAEECGLPVVVSSAVETSVGLAAGVALAAALPELPYACGLATLRLLHADVCDDPLLPVHGVLPVRRVDVSEQRLAEVEIDPAAWQARLAAARAAWEQVEREPGP
B11: T. fusca OSBS (Thermobifida fusca YX; F37A) (protein)
chain: MTGRAFAIPLRTRFRGITVREGMLVRGAAGWGEFSPAAEYGPRECARWWAACYEAAELGWPAPVRDTVPVNATVPAVGPEEAARIVASSGCTTAKVKVAERGQSEANDVARVEAVRDALGPRGRVRIDVNGAWDVDTAVRMIRLLDRFELEYVEQPCATVDELAEVRRRVSVPIAADESIRRAEDPLRVRDAEAADVVVLKVQPLGGVRAALRLAEECGLPVVVSSAVETSVGLAAGVALAAALPELPYACGLATLRLLHADVCDDPLLPVHGVLPVRRVDVSEQRLAEVEIDPAAWQARLAAARAAWEQVEREPGP
B12: T. fusca OSBS (Thermobifida fusca YX; G252A) (protein)
chain: MTGRAFAIPLRTRFRGITVREGMLVRGAAGWGEFSPFAEYGPRECARWWAACYEAAELGWPAPVRDTVPVNATVPAVGPEEAARIVASSGCTTAKVKVAERGQSEANDVARVEAVRDALGPRGRVRIDVNGAWDVDTAVRMIRLLDRFELEYVEQPCATVDELAEVRRRVSVPIAADESIRRAEDPLRVRDAEAADVVVLKVQPLGGVRAALRLAEECGLPVVVSSAVETSVGLAAGVALAAALPELPYACALATLRLLHADVCDDPLLPVHGVLPVRRVDVSEQRLAEVEIDPAAWQARLAAARAAWEQVEREPGP

Substrate in the first data set: O=C(O)CCC(=O)C1=CC=C[C@@H](O)[C@@H]1C(=O)O
Nature of the data set: purified protein. In kind it is biochemical, Thermosynechococcus vestitus. Particulars: 50 mM Tris pH 8.0, 0.1 mM MnCl2, 25°C.
For orientation: Km means the substrate concentration at which the rate is half of its maximum. For orientation: kcat means the maximal rate divided by the concentration of active sites. The kcat/Km is the second-order rate constant that governs catalysis at low substrate concentration. Consider B1, for which the Km stood at 78 ± 17 µM, the kcat is 80 ± 4 s⁻¹ and the kcat/Km worked out at 1e+06 M⁻¹ s⁻¹.

With B2, the Km worked out at 304 ± 82 µM, the kcat came to 4 ± 0.4 s⁻¹ and the catalytic efficiency (kcat/Km) is 13000 M⁻¹ s⁻¹.

Substrate in another data set: O=C(O)CCC(=O)C1=CC=C[C@@H](O)[C@@H]1C(=O)O
Nature of the data set: purified protein. In kind it is biochemical, Escherichia coli. Particulars: 50 mM Tris pH 8.0, 0.1 mM MnCl2, 25°C. The source holds these as a separate data set.
For the protein B3, the Km is 109 ± 17 µM, the kcat amounted to 32 ± 1.9 s⁻¹ and the catalytic efficiency (kcat/Km) was found to be 290000 M⁻¹ s⁻¹.

Consider B4, for which the Km was found to be 83 ± 17 µM, the kcat was determined as 3.6 ± 0.3 s⁻¹ and the kcat/Km is 43000 M⁻¹ s⁻¹.

Take B5: the Km was found to be 22 ± 0.1 µM, the kcat came out at 0.5 ± 0.1 s⁻¹ and the kcat/Km was 23000 M⁻¹ s⁻¹.

Substrate in another data set: O=C(O)CCC(=O)C1=CC=C[C@@H](O)[C@@H]1C(=O)O
Nature of the data set: purified protein. In kind it is biochemical, Thermobifida fusca. Particulars: 50 mM Tris pH 8.0, 0.1 mM MnCl2, 25°C. This is another data set of the same source.
For the protein B6, the Km is 322 ± 56 µM, the kcat worked out at 10 ± 0.7 s⁻¹ and the kcat/Km turned out to be 31000 M⁻¹ s⁻¹.

For B7, the Km was 182 ± 22 µM, the kcat amounted to 122 ± 4.6 s⁻¹ and the kcat/Km turned out to be 670000 M⁻¹ s⁻¹.

Turning to B8, the Km was 668 ± 72 µM, the kcat was 13 ± 0.7 s⁻¹ and the catalytic efficiency (kcat/Km) was found to be 19000 M⁻¹ s⁻¹.

For B9, the Km came out at 7 ± 1.4 µM, the kcat amounted to 0.6 ± 0.02 s⁻¹ and the kcat/Km amounted to 86000 M⁻¹ s⁻¹.

Take B10: the Km is 470 ± 42 µM, the catalytic constant (kcat) was 104 ± 4 s⁻¹ and the kcat/Km amounted to 220000 M⁻¹ s⁻¹.

For the protein B11, the Km stood at 666 ± 151 µM, the kcat turned out to be 163 ± 19 s⁻¹ and the kcat/Km is 250000 M⁻¹ s⁻¹.

Turning to B12, the Km came out at 86 ± 6 µM, the kcat amounted to 16 ± 0.3 s⁻¹ and the kcat/Km worked out at 190000 M⁻¹ s⁻¹.

Values taken from publication PMC3908897.
